Article PMC10495343 (2023)

Key:
[1] = target: T1, collagen-binding, serum albumin-fused IL-4 variant (CBD-SA-IL-4) (UniProt P04275); test: ELISA
[2] = target: T1, collagen-binding, serum albumin-fused …; test: SPR

B1: IL-4Rα-Fc (Fc fusion)
chain: IKVLGEPTCFSDYIRTSTCEWFLDSAVDCSSQLCLHYRLMFFEFSENLTCIPRNSASTVCVCHMEMNRPVQSDRYQMELWAEHRQLWQGSFSPSGNVKPLAPDNLTLHTNVSDEWLLTWNNLYPSNNLLYKDLISMVNISREDNPAEFIVYNVTYKEPRLSFPINILMSGVYYTARVRVRSQILTGTWSEWSPSITWYNHFQLPLIQR
Binder B1 has a Kd [1] of 0.118 nM.

B2: collagen III (natural protein)
chain: QYDSYDVKSGVAVGGLAGYPGPAGPPGPPGPPGTSGHPGSPGSPGYQGPPGEPGQAGPSGPPGPPGAIGPSGPAGKDGESGRPGRPGERGLPGPPGIKGPAGIPGFPGMKGHRGFDGRNGEKGETGAPGLKGENGLPGENGAPGPMGPRGAPGERGRPGLPGAAGARGNDGARGSDGQPGPPGPPGTAGFPGSPGAKGEVGPAGSPGSNGAPGQRGEPGPQGHAGAQGPPGPPGINGSPGGKGEMGPAGIPGAPGLMGARGPPGPAGANGAPGLRGGAGEPGKNGAKGEPGPRGERGEAGIPGVPGAKGEDGKDGSPGEPGANGLPGAAGERGAPGFRGPAGPNGIPGEKGPAGERGAPGPAGPRGAAGEPGRDGVPGGPGMRGMPGSPGGPGSDGKPGPPGSQGESGRPGPPGPSGPRGQPGVMGFPGPKGNDGAPGKNGERGGPGGPGPQGPPGKNGETGPQGPPGPTGPGGDKGDTGPPGPQGLQGLPGTGGPPGENGKPGEPGPKGDAGAPGAPGGKGDAGAPGERGPPGLAGAPGLRGGAGPPGPEGGKGAAGPPGPPGAAGTPGLQGMPGERGGLGSPGPKGDKGEPGGPGADGVPGKDGPRGPTGPIGPPGPAGQPGDKGEGGAPGLPGIAGPRGSPGERGETGPPGPAGFPGAPGQNGEPGGKGERGAPGEKGEGGPPGVAGPPGGSGPAGPPGPQGVKGERGSPGGPGAAGFPGARGLPGPPGSNGNPGPPGPSGSPGKDGPPGPAGNTGAPGSPGVSGPKGDAGQPGEKGSPGAQGPPGAPGPLGIAGITGARGLAGPPGMPGPRGSPGPQGVKGESGKPGANGLSGERGPPGPQGLPGLAGTAGEPGRDGNPGSDGLPGRDGSPGGKGDRGENGSPGAPGAPGHPGPPGPVGPAGKSGDRGESGPAGPAGAPGPAGSRGAPGPQGPRGDKGETGERGAAGIKGHRGFPGNPGAPGSPGPAGQQGAIGSPGPAGPRGPVGPSGPPGKDGTSGHPGPIGPPGPRGNRGERGSEGSPGHPGQPGPPGPPGAPGPCCGGVGAAAIAGIGGEKAGGFAPYYG
For B2, the koff [2] was 0.0056 s⁻¹.
